Assay results reported in PMC7483523, “Affinity of Skp to OmpC revealed by single-molecule detection” (Scientific Reports, 2020).

T1: OmpC·Skp3 complex (dual-labelled OmpC G8C-D335C with wild-type Skp) (UniProt P06996 22-367; P0AEU7 21-161, G8C | D335C, fluorescent dyes AF555 and AF647 (maleimide) on the cysteines)
T1 construct: OmpC, as the chain of m4; Skp, as the chain of m1; source: formed in the sample from purified urea-denatured OmpC G8C-D335C (50 pM) and purified wild-type Skp; copies: 1 + 3
T1 sequence 1: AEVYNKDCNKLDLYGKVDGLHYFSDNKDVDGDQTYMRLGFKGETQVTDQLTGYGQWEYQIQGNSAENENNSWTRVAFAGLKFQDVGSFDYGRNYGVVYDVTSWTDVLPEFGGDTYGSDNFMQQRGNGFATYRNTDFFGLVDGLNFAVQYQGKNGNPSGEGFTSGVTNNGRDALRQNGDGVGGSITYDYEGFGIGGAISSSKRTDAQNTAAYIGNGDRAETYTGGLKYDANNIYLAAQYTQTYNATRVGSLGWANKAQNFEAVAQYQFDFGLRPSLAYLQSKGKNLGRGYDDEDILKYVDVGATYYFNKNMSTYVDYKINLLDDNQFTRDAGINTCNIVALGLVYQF
T1 sequence 2: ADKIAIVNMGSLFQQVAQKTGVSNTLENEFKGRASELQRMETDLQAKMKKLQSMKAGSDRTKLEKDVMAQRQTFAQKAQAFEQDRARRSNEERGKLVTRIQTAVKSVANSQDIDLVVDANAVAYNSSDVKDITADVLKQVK

T2: OmpC G8C-L139C, dual-labelled (UniProt P06996 22-367, G8C | L139C, dual-labelled with fluorescent dyes on the cysteines (dyes not named for this mutant))
T2 construct: OmpC, outer membrane protein; plasmid pET28a-ompC as template; also called OmpC double mutant; source: E. coli BL21(DE3), purified (Ni-NTA) in 8 M urea
T2 sequence (looked up): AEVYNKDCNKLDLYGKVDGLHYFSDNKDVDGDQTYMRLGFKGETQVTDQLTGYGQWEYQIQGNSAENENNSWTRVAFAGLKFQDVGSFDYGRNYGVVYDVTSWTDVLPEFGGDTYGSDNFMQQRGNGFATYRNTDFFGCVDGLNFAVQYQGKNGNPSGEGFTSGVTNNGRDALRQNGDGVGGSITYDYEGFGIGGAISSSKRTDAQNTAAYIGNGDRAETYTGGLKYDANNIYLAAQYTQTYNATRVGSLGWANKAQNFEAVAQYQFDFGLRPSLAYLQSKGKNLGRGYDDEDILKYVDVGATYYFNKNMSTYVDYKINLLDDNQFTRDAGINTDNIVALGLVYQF

T3: OmpC G8C-I232C, dual-labelled (UniProt P06996 22-367, G8C | I232C, dual-labelled with fluorescent dyes on the cysteines (dyes not named for this mutant))
T3 construct: OmpC, outer membrane protein; plasmid pET28a-ompC as template; also called OmpC double mutant; source: E. coli BL21(DE3), purified (Ni-NTA) in 8 M urea
T3 sequence (looked up): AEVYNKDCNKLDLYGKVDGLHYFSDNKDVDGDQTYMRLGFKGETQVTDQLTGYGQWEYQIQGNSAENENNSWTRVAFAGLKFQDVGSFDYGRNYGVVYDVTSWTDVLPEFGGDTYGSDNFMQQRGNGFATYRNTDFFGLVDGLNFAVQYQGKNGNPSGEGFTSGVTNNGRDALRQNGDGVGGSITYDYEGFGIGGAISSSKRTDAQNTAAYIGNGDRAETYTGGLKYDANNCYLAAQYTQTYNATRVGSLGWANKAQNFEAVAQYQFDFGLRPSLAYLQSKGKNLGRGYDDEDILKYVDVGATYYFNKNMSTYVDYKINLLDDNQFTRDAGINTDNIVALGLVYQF

T4: OmpC G8C-D335C labelled with AF555 and AF647 (UniProt P06996 22-367, G8C | D335C, fluorescent dyes AF555 and AF647 (maleimide) on the cysteines)
T4 construct: OmpC, outer membrane protein; plasmid pET28a-ompC as template; Unfolded OmpC, diluted from urea; Residue numbers fit the mature protein without its signal peptide (surmised); also called dual-labelled OmpC; intramolecular labelled OmpC G8C-D335C; source: E. coli BL21(DE3), purified (Ni-NTA) in 8 M urea; diluted from 8 M urea into the sample
T4 sequence (looked up): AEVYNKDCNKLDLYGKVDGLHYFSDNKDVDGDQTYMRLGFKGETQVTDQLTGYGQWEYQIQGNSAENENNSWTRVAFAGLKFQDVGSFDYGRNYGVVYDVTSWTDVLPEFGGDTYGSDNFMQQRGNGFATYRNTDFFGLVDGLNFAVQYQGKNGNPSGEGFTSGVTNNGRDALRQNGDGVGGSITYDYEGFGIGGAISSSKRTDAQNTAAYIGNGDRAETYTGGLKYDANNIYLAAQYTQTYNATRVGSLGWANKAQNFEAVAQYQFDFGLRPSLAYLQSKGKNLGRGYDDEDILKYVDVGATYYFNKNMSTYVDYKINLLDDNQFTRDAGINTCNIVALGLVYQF

T5: OmpC G8C-AF555 with an AviTag on the C-terminus, biotinylated (UniProt P06996 22-367, G8C, AF555 (maleimide) on the cysteine of G8C; biotin on the AviTag's lysine side chain)
T5 construct: OmpC, outer membrane protein; plasmid pET28a-ompC as template; Held on a streptavidin surface by the biotin of the AviTag; also called biotinylated OmpC; source: E. coli BL21(DE3), purified (Ni-NTA) in 8 M urea; biotinylated by BirA
T5 sequence (looked up): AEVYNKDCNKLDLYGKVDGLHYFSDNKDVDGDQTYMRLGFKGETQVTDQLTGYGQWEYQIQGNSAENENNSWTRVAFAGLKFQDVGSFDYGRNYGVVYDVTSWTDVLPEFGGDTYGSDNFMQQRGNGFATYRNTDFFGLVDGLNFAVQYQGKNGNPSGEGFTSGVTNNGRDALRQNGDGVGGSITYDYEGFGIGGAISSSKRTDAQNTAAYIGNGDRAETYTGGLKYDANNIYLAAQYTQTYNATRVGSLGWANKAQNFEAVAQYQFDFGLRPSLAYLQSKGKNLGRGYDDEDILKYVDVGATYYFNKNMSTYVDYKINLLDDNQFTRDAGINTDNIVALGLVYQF

B1: wild-type Skp (natural protein)
chain: ADKIAIVNMGSLFQQVAQKTGVSNTLENEFKGRASELQRMETDLQAKMKKLQSMKAGSDRTKLEKDVMAQRQTFAQKAQAFEQDRARRSNEERGKLVTRIQTAVKSVANSQDIDLVVDANAVAYNSSDVKDITADVLKQVK
notes: Skp, periplasmic chaperone of gram-negative bacteria; plasmid pET28a-skp; In equilibrium between monomer and homotrimer (Skp3); concentrations are counted in Skp monomer; The printed mass of the labelled His-tagged mutant (18.8 kD) and the residue number D128 fit the mature protein without its signal peptide (surmised); also called Skp3 (trimer); Skp monomer; source: E. coli BL21(DE3) pLysS, …
B2: Skp D128C-AF647 (natural protein)
chain: ADKIAIVNMGSLFQQVAQKTGVSNTLENEFKGRASELQRMETDLQAKMKKLQSMKAGSDRTKLEKDVMAQRQTFAQKAQAFEQDRARRSNEERGKLVTRIQTAVKSVANSQDIDLVVDANAVAYNSSCVKDITADVLKQVK
modifications: AF647 (maleimide) on the cysteine of D128C
notes: Skp; plasmid pET28a-skp as template; source: E. coli BL21(DE3) pLysS, purified (Ni-NTA, desalting), labelled in 4 M urea; not shown: His-tag, N-terminal, kept

Legend:
[1] = target: the molecule itself; test: fluorescence correlation spectroscopy (FCS); trimer to monomers; 0.4 nM Skp D128C-Cy3B as tracer in wild-type Skp of various concentrations, denatured by 4 M urea and diluted 100-fold in buffer C (50 mM PB, 100 mM NaCl, pH 7.0), 0.02% tween 20, 23 °C; effective stoichiometric number from the diffusion time fitted against [Skp]0
[2] = target: T1, OmpC·Skp3 complex (dual-labelled OmpC …); test: smFRET (intramolecular, on dual-labelled OmpC); 50 pM dual-labelled OmpC diluted from 8 M urea into micromolar wild-type Skp, buffer C, 0.02% tween 20, 23 °C; peak areas of Eapp 0.1 and 0.3 fitted against [Skp]0; conditions: both partners purified
[3] = target: T2, OmpC G8C-L139C, dual-labelled; test: as above; conditions: both partners purified
[4] = target: T3, OmpC G8C-I232C, dual-labelled; test: as above; conditions: both partners purified
[5] = target: T4, OmpC G8C-D335C labelled with AF555 and …; test: pscFCS (portion-selectively-chosen FCS on smFRET subpopulations); 50 pM dual-labelled OmpC diluted from 8 M urea into wild-type Skp at subnanomolar to nanomolar concentrations, buffer C, 0.02% tween 20, 23 °C; diffusion times of bound and unbound OmpC compared in the same sample; conditions: both partners purified
[6] = target: T5, OmpC G8C-AF555 with an AviTag on the …; test: TIRF colocalization (single molecule); apparent; biotinylated OmpC G8C-AF555 (50 pM) immobilised on a streptavidin coverslip; Skp D128C-AF647 from 500 pM to 8 nM in buffer C, 0.02% tween 20, oxygen scavenging system, 23 °C; alternating laser excitation 532 and 640 nm; conditions: both partners purified

| Binder | stoichiometry N [1] | Kd [2] | binding result [3] | binding result [4] | stoichiometry N [5] | Kd [6] | stoichiometry N [6] |
| --- | --- | --- | --- | --- | --- | --- | --- |
| B1 | 3 | 1200 ± 400 nM | binds | binds | 2.8 ± 0.4 Skp:OmpC |  |  |
| B2 |  |  |  |  |  | 0.55 nM | 3 |
